According to article PMC4683259:
One block for each substance: values may come before it.

How the values were obtained:
[1] = biological target: KV10.1 voltage-gated potassium channel, full-length form (E100) (human) (UniProt O95259)
[2] = biological target: KV10.1 voltage-gated potassium channel, full-length form (E100) (human) (UniProt O95259); remark: listed apart in the source
[3] = biological target: KV10.1 voltage-gated potassium channel, full-length form (E100) (human) (UniProt O95259); remark: listed apart in the source

Sequence of UniProt O95259 (O95259 whole entry): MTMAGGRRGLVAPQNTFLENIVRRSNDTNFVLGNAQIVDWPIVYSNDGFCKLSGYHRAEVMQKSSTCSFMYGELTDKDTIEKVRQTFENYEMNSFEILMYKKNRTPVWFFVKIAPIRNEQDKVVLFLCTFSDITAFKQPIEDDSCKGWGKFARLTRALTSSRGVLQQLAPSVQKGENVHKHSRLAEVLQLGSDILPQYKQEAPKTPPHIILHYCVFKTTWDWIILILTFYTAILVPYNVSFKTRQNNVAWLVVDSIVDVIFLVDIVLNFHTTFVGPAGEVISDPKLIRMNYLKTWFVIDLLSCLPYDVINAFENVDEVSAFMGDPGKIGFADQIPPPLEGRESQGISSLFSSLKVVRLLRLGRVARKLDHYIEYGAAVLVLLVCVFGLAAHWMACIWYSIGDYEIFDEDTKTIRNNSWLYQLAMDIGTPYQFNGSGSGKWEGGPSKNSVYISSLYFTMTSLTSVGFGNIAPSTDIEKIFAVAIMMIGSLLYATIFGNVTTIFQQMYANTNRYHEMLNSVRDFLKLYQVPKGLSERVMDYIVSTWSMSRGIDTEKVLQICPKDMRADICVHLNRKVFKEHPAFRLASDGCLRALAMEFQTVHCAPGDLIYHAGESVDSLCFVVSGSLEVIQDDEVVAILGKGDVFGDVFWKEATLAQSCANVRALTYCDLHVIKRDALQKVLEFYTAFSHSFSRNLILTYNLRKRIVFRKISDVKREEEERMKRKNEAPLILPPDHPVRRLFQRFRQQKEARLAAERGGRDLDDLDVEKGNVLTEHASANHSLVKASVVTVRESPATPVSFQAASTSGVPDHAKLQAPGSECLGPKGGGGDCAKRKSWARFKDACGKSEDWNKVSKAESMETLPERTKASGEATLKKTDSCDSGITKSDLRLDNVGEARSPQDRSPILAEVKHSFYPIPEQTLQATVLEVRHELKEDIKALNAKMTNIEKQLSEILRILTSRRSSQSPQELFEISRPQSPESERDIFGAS

reduction of KV10.1 current amplitude, whole-cell patch clamp, HEK-KV10.1 cells transfected with E65^L405YmVenus (not statistically significant) [1]: 20.8%
Substance: E65^L405YmVenus (TCC-defective E65 fused to mVenus) (natural protein)

reduction of KV10.1 current, two-electrode voltage clamp, Xenopus oocytes co-injected with E65 and KV10.1 cRNA at a 1:10 ratio (E65 from pSGEM, no mVenus) [2]: 85%
reduction of KV10.1 current, whole-cell patch clamp, HEK293 cells stably expressing KV10.1 and transfected with E65mVenus (control mVenus alone) [3]: 41.7%
Substance: E65mVenus (KV10.1 splice variant E65 fused to mVenus) (natural protein)

reduction of KV10.1 current density at +80 mV, whole-cell patch clamp, HEK-KV10.1 cells transfected with E70^L556YmVenus [1]: 45.3%
Substance: E70^L556YmVenus (TCC-defective E70 fused to mVenus) (natural protein)

reduction of KV10.1 current, two-electrode voltage clamp, Xenopus oocytes co-injected with E70 and KV10.1 cRNA at a 1:10 ratio (E70 from pSGEM, no mVenus) [2]: 60%
reduction of KV10.1 current, whole-cell patch clamp, HEK293 cells stably expressing KV10.1 and transfected with E70mVenus (control mVenus alone) [3]: 53.8%
Substance: E70mVenus (KV10.1 splice variant E70 fused to mVenus) (natural protein)
